Source: patent US9028824 (dated 2015)
Read-outs that look alike come from different tables or passages of the source.

Key:
[1] = molecular target: T1, CD271 (NGF receptor) ECD-IgG1 fusion (human, UniProt P08138); test: other, up to 700 nM
T1 chain: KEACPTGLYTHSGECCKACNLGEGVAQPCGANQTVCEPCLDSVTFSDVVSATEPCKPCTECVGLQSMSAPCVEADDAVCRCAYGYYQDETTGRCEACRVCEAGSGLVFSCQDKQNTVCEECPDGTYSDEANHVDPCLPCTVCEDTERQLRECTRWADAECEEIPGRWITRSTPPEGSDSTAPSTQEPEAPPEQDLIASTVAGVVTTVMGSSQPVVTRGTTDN

CD40 ECD-IgG1 fusion [2] = molecular target: T2, CD40 ECD-IgG1 fusion (human, UniProt P25942); test: other, up to 700 nM
[3] = molecular target: T3, CD137 (4-1BB) ECD-IgG1 fusion (human, UniProt Q07011); test: other, up to 700 nM
CD40 ECD-IgG1 fusion [4] = molecular target: T2, CD40 ECD-IgG1 fusion; test: other, up to 700 nM; remark: listed apart in the source
human OX40R on cells [5] = molecular target: T4, human OX40R on cells (human, UniProt P43489); test: FACS, CD3/CD28 stimulated T cells
T4 chain: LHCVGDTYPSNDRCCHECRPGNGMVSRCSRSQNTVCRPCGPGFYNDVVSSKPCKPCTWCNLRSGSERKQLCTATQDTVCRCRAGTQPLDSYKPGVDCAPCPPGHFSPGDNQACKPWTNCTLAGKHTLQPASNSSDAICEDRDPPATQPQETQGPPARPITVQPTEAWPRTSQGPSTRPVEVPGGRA

[6] = molecular target: T3, CD137 (4-1BB) ECD-IgG1 fusion; test: other, up to 700 nM; remark: listed apart in the source
[7] = molecular target: T5, human OX40R extracellular domain fusion protein (CD134-muIg) (human, UniProt P43489); test: SPR
T5 chain: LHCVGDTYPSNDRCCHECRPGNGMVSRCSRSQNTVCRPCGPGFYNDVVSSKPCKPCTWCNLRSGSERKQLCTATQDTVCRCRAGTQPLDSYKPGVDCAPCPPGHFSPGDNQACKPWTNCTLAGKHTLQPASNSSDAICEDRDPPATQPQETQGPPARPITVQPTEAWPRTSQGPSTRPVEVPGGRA

human OX40R on cells [8] = molecular target: T4, human OX40R on cells; test: FACS, OX40R+ 300-19 cells
[9] = molecular target: T5, human OX40R extracellular domain fusion …; test: ELISA
murine OX40R ECD fusion = molecular target: T6, murine OX40R ECD fusion (mouse, UniProt P47741); test: ELISA
T6 chain: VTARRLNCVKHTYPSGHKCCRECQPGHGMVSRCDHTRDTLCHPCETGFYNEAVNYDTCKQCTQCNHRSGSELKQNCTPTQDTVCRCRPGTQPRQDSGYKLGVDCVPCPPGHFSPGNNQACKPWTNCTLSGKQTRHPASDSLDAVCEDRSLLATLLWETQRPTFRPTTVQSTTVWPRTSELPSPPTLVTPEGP

[10] = molecular target: T1, CD271 (NGF receptor) ECD-IgG1 fusion; test: other, up to 700 nM
human OX40R on cells [11] = molecular target: T4, human OX40R on cells; test: FACS, human T cells

T2 sequence (P25942 21-193): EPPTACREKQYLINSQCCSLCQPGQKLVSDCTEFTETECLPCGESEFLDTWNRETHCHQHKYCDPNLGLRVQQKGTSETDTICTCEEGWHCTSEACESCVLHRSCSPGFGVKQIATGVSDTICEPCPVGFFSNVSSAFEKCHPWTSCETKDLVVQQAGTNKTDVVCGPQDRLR
T3 sequence (Q07011 24-186): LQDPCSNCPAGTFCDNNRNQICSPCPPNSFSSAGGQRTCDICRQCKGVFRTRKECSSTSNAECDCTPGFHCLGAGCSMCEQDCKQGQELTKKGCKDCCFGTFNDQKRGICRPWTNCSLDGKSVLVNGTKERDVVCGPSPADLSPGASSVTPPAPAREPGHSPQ

B1: 18D8 (antibody, V domains shown)
VH: EVQLVESGGGLVQPGRSLRLSCAASGFTFDDYAMHWVRQAPGKGLEWVSGISWNSGSIGYADSVKGRFTISRDNAKNSLYLQMNSLRAEDTALYYCAKDQSTADYYFYYGMDVWGQGTTVTVSS
VL: EIVVTQSPATLSLSPGERATLSCRASQSVSSYLAWYQQKPGQAPRLLIYDASNRATGIPARFSGSGSGTDFTLTISSLEPEDFAVYYCQQRSNWPTFGQGTKVEIK
binding result [1]: no binding | binding result (CD40 ECD-IgG1 fusion [2]): no binding | binding result [3]: no binding

B2: 11D4 (antibody, V domains shown)
VH: EVQLVESGGGLVQPGGSLRLSCAASGFTFSSYSMNWVRQAPGKGLEWVSYISSSSSTIDYADSVKGRFTISRDNAKNSLYLQMNSLRDEDTAVYYCARESGWYLFDYWGQGTLVTVSS
VL: DIQMTQSPSSLSASVGDRVTITCRASQGISSWLAWYQQKPEKAPKSLIYAASSLQSGVPSRFSGSGSGTDFTLTISSLQPEDFATYYCQQYNSYPPTFGGGTKVEIK
binding result (CD40 ECD-IgG1 fusion [4]): no binding | EC50 (human OX40R on cells [5]): 4 nM | binding result [6]: no binding | Kd [7]: 0.48 nM | EC50 (human OX40R on cells [8]): 1.7 nM | EC50 [9]: 3.5 nM | binding result (murine OX40R ECD fusion): no binding | binding result [10]: no binding | EC50 (human OX40R on cells [11]): 0.566 µg/mL
